{"source": "paper PMC8750077", "key": {"[1]": {"target": "HPV18-E6 (4C-4S) version of E6 fused with His-tag (human papillomavirus type 18 (HPV18)) (UniProt P06463)", "sequence (P06463 whole entry, the tested form may be a part)": "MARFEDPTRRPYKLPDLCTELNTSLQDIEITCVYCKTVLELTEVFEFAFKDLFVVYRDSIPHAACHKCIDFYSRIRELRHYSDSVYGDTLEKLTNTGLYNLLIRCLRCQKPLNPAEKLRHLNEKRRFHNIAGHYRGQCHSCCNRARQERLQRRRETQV"}, "[2]": {"target": "HPV18-E6 (4C-4S) version of E6 fused with His-tag (human papillomavirus type 18 (HPV18)) (UniProt P06463)", "remark": "listed apart in the source"}}, "data": [{"substance": "untagged USP46 (from UniProt P62068 1-366) (enzyme)", "values": [{"measurement": "deubiquitinase activity of recombinant USP46 (singly purified His-USP46, 70 nM) on the ubiquitin substrate after simple mixing with recombinant HPV-E6 (4 uM); USP46 alone 0.39 FU/min", "setting": "[1]", "result": 0.58, "unit": "FU/min"}, {"measurement": "deubiquitinase activity on Ub-AMC of the E6:USP46 complex purified on Ni-NTA and concentrated (USP46-UAF1 complex in the same assay: 0.83 FU/min)", "setting": "[2]", "result": 0.78, "unit": "FU/min"}]}]}
